In one test the target is Trigger Factor (UniProt P0A850). The experiment in a line: high-speed atomic force microscopy.
Test [1] has as its target ribosome-nascent chain complex (RNC) stalled on mTFP1-KCNQ helices A, TW, B-SecM arrest peptide (UniProt P0ADZ0). Put plainly: high-speed atomic force microscopy.

Chain of Trigger Factor (P0A850 whole entry): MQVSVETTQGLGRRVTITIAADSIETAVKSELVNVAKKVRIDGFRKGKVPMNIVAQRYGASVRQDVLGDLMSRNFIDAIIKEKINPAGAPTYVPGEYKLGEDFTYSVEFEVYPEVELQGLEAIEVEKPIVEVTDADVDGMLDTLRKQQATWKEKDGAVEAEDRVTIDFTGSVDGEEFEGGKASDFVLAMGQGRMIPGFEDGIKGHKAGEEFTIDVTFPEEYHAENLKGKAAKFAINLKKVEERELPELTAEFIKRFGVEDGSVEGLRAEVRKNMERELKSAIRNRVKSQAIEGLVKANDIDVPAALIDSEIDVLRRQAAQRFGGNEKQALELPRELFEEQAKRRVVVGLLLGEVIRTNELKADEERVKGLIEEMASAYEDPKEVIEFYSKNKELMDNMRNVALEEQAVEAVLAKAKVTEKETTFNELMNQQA

For orientation: stoichiometry N means the number of molecules, sites or subunits per partner or assembly. As to “Trigger Factor (from UniProt P0A850 1-432) (natural protein)”, the stoichiometry N with Trigger Factor is 2. In test [1], the duration of binding is over 30 s; the duration of binding (second interaction, near bL17) is under 15 s; the dwell time constant τ (first TF binding event) is 8 s; the dwell time constant τ (first TF molecule) came to 8.3 s. Moreover, in test [1], the dwell time constant τ (second TF molecule, near bL17) worked out at 3.9 s and the stoichiometry N turned out to be 2.

The record behind these values is paper doi:10.1101/2025.05.16.654432.
